Source: the supplement of paper PMC10126150
± gives the standard deviation of the averaged measurements.

Test system: ATP
Assay: switch fluorescence ratio, 500 uM ATP over buffer (Cy3 cluster intensity, sum of 5 cycles each) (fold (ratio)); higher = stronger signal-on switching upon ATP binding; sequences stand for … in TCGTCGGCAGCGTCAGATGTGTATAAGAGACAGTTTTTTTTTTTTTTTTTTTTTTTTT…TC
Details: aptamer strand: ATP DNA aptamer (quencher-CACCTGGGGGAGTATTGCGGAGGAAGG + anchor), 100 nM annealed; ATP concentration: 500 uM
Method in brief: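 Imaging in selection buffer was followed by imaging after 15 min with 500 uM ATP at 22 °C, for Cy3-labelled switching-strand clusters annealed to 100 nM quencher-labelled ATP aptamer on a modified Illumina MiSeq flow-cell. Five of these buffer/ATP cycles ran, separated by NaOH stripping and re-annealing. The fluorescence ratio per cluster is summed target-cycle over summed buffer-cycle Cy3 intensity, averaged per switch-domain sequence; clusters outside 100-1000 RFU were removed.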
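Also: ATP exposure 15 min at 22 °C before imaging.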

Sequence | switch fluorescence ratio
TAGCTGGCTG | 0.986 ± 0.043
TGGAAAGCTG | 1.04 ± 0.025
AGGGGCAACT | 1 ± 0.048
TTGAGTACCG | 0.959 ± 0.022
TGGTCAGGGG | 1.09 ± 0.056
TTTAGAAATC | 1.08 ± 0.16
TGGAGCAGGG | 1.05 ± 0.036
GAGTGCCTGG | 1.02 ± 0.012
AAGTTTTTTG | 0.989 ± 0.013
TTTAGTTGTA | 1.018 ± 0.0077
TCGGGCAGTG | 0.99 ± 0.03
CATGTTTGCT | 0.961 ± 0.02
CTTTTATCAC | 1.25 ± 0.43
GCCTTTTCTG | 0.962 ± 0.031
AAATTATCGG | 1 ± 0.042
CGGGGGTGG | 1.02 ± 0.062
TGTAACGGGG | 1.03 ± 0.032
TGTTGGGTTT | 0.998 ± 0.031
GCTGGGTGCA | 0.9719 ± 0.0016
GGAGATATCT | 1.11 ± 0.0069
TCAGGCGTTG | 0.971 ± 0.027
GGCTTAGTTT | 1.01 ± 0.0055
AGCTATTAAG | 0.9947 ± 0.0065
GTTATTTGGA | 0.971 ± 0.069
CAAGAGTATT | 0.995 ± 0.022

Sequence | switch fluorescence ratio
AAAATATGGG | 0.987 ± 0.031
TAGTTGGATG | 1 ± 0.038
TGACTGGGCG | 1.0063 ± 0.00065
GTTTCTTGGG | 0.995 ± 0.056
TCAATGAATA | 0.986 ± 0.02
GCTTGAGGGG | 1.012 ± 0.0022
GACCTCAGAC | 1.09 ± 0.024
GTTCTGGGCT | 0.973 ± 0.016
GCATATAAAC | 1.2 ± 0.17
GCTGCAGCGC | 1.005 ± 0.0042
TGGTAAAAAA | 0.959 ± 0.016
GCTTTGGCTA | 1.02 ± 0.036
ATGGACATAC | 1.22 ± 0.098
CAGGGTTGCC | 0.996 ± 0.018
GCGAAAGGGT | 1 ± 0.015
GAATTTTTTC | 1.02 ± 0.016
ACTACCCCAA | 1.94 ± 0.14
AAACTGCTCG | 1.04 ± 0.064
CATAGGTTCT | 0.986 ± 0.023
GGTGGTTGGG | 1.01 ± 0.038
GTTTCTTTGT | 0.986 ± 0.049
GACCTATCTT | 1.035 ± 0.0017
GTGACGGGGG | 1.02 ± 0.029
TTTTGTGGCT | 0.98 ± 0.02
GTGGTAAGGG | 0.972 ± 0.034

Sequence | switch fluorescence ratio
GGTTGCAAGA | 1.01 ± 0.015
CGCGTTGTGG | 1.03 ± 0.012
TGGGGGAACG | 0.984 ± 0.026
TATCATGCCG | 0.967 ± 0.037
CTTGGTCAAG | 0.9834 ± 0.0062
TTTACCCCAT | 1.05 ± 0.032
ATTAAGCACC | 1.3 ± 0.079
AAAAGCTCGT | 1 ± 0.05
ACGGGCTTTA | 1.03 ± 0.026
TTAGGGCGGG | 1.04 ± 0.039
AGTGGGGTG | 1.03 ± 0.026
TGGGGGTAGC | 1.001 ± 0.0091
TTGGTTACAG | 0.978 ± 0.031
AATAGGGGCA | 0.949 ± 0.017
TGATCGAAGG | 0.991 ± 0.034
ATGAGTGGTG | 1.019 ± 0.0077
TCGTAGAGGG | 1.008 ± 0.0013
CCTTAGGTAT | 1.011 ± 0.0094
TTCGGGGGGC | 0.961 ± 0.039
GACGGAGTCG | 0.997 ± 0.03
ATAGGTTTTT | 0.973 ± 0.024
CTCGAATGTA | 0.994 ± 0.014
AGGAGGCGAG | 0.9905 ± 0.0088
AAAAACAGGT | 1.02 ± 0.013
TTTCTATGGT | 1.003 ± 0.0073

Sequence | switch fluorescence ratio
GCAATTTTGT | 1.03 ± 0.015
GTTGCGCACA | 1.024 ± 0.0097
ACTCTAGTTC | 1.063 ± 0.01
TTTTCCCGCA | 2.02 ± 0.26
TGGGTTAATC | 1.01 ± 0.052
CTCCCTGGGT | 1.401 ± 0.013
GGTCACAAGA | 1 ± 0.032
GGGGAATTCG | 1.02 ± 0.043
TGAAATATCA | 1.0208 ± 0.00019
CGGATGTTGC | 1.03 ± 0.05
TTTGGTGCCC | 1.03 ± 0.029
GTGGGATATA | 0.995 ± 0.049
AATCGAGTGG | 0.969 ± 0.06
GTTGTAGGTG | 1.057 ± 0.0014
GGGGTCGTTT | 0.9947 ± 0.0067
GGTATTGGGC | 0.9875 ± 0.0056
GTCGGTTGGG | 0.99 ± 0.026
CGTTTTTGGA | 0.966 ± 0.018
TTTAGTCGGG | 1.02 ± 0.046
ATTCGCGCTG | 0.994 ± 0.064
TATGGTTTTC | 1.01 ± 0.084
TGGAGAAAGG | 1.13 ± 0.29
TAATAAGGAG | 1.004 ± 0.0074
ATTAGGGTGG | 0.992 ± 0.018
TGGGGGTCGG | 1.03 ± 0.017
